Assay results: the DeepSol protein solubility set

assay: soluble on expression in E. coli; label from the status in PepcDB or PDB records

Row | Sequence | soluble on expression in E. coli
1 | MSYYHHHHHHLESTSLYKKAGLQALLLEQQDGKTLASVQTLDESRLPEGDVTVDVHWSSLNYKDALAITGKGKIIRNFPMIPGIDFAGTVRTSEDPRFHAGQEVLLTGWGVGENHWGGLAEQARVKGDWLVAMPQGLDARKAMIIGTAGFTAMLCVMALEDAGVRPQDGEIVVTGASGGVGSTAVALLHKLGYQVVAVSGRESTHEYLKSLGASRVLPRDEFAESRPLEKQVWAGAIDTVGDKVLAKVLAQMNYGGCVAACGLAGGFTLPTTVMPFILRNVRLQGVDSVMTPPERRAQAWQRLVADLPESFYTQAAKEISLSEAPNFAEAIINNQIQGRTLVKVN | soluble
2 | MSYYLVQSTDEDILKHAECGGAVTAFFKYLLDKKLVDGVLALKKGEDVYDGLPYLVNDSKELVETCGSLHCAPTMFGNMISKHLKDMNLAVSVKPCDAMAIVELEKRHQIDKDKLYTIGLNCGGTVPPQTAKKMIELFYDVDPEDVIKEEIDKGKFIIELKDGSEKSVKIDELEEEGYGRRTNCQRCELKVPRNSDLACGNWGTEKGWTFVEVGSEKGEELLKNAQKEGYINVKAPSEKALEIRGKIEKSMINLGKKFQKEQLDEKYPEPEKWDEYWSRCIKCYGCRDVCPICFCKECALGEDYLDKGTIPPDPIMFQGIRLSHMSFSCINCGQCEDVCPVEIPLAKIYHRAQLKIRETTGFVPGIDDSMPFLYKLEHHHHHH | not soluble
3 | MTAANLTEQQRLELEAAAFRTLVHHLQTRKDVQNIDLMNLAGFCRNCLSKWYKAAADDLGVEVSNDQAREEIYGMPYAEWKAKYQKEASPEQQAAFAKSQGNA | not soluble
4 | MTAASLDPTAFSLDAASLAARLDAVFDQALRERRLVGAVAIVARHGEILYRRAQGLADREAGRPMREDTLFRLASVTKPIVALAVLRLVARGELALDAPVTRWLPEFRPRLADGSEPLVTIHHLLTHTSGLGYWLLEGAGSVYDRLGISDGIDLRDFDLDENLRRLASAPLSFAPGSGWQYSLALDVLGAVVERATGQPLAAAVDALVAQPLGMRDCGFVSAEPERFAVPYHDGQPEPVRMRDGIEVPLPEGHGAAVRFAPSRVFEPGAYPSGGAGMYGSADDVLRALEAIRANPGFLPETLADAARRDQAGVGAETRGPGWGFGYLSAVLDDPAAAGTPQHAGTLQWGGVYGHSWFVDRALGLSVLLLTNTAYEGMSGPLTIALRDAVYAR | soluble
5 | MTADIRFDEKGLVPAIVQDAQSKEVLTLAYMNKESLEKTLETGETWFYSRSRQELWHKGATSGNVQRVVDIRYDCDADALLVLVEPAGPACHTGSYSCFSRSLDGAARTPAADRFAILNELEQIIAKRDAERPEGSYTTYLFEKGVDKILKKVGEEAAEVIIAAKNQNHEELKWEAADLLYHLLVLLREQKLPLDAVLATLAERHAQKVGAGDKKE | not soluble
6 | MTAPGSMPLTVIGGFLGAGKTTLLNYLLKVQHSERVLVMVNDFGSINIDAELLDQGRHDRPGVVRLQNGCVCCSIGGDLMQAFLQVMSMPDRPDRIIVEASGVADPTRIAQIGRVSGGLSDEGVITLVDASAVRTLAADKYVGDIVRQQILSADIVLLNKLDLSSDAEIVETRAWLRDLAPRTRVVSCIHGEVDAVSVLGIGAGKVAPDAAGGPVDVPVPDLRRASTRHADTFHSSTLATAHRFDRRRIEYALDALPQTVLRGKGFVELEGEATPALLQLCGSRWTLDPVSTPAPPAGTHLVFIATGGRGVPRFDAPSHFEQALASRDAASADTSNLEHHHHHH | soluble
7 | MTAPSLDNWEKRKRFVELPRKRQMAFIDTGGPGPVLLMLHGFSDTSRSFSIIEPYFQEYRLIAPDLPGHGASSVGHGFHVADFAETIDRFLTLMGVSRFFVLGHSMGAMTAIELAARRSSSVRGLALISGTLEPDFGTESKLARDILALRDPIKPAGGFLHDWYSCSRPVNEEFLFRMKRDAANMAATTWHGVLKAFAETDLHYSASKINVPVLCLAGSEDPLFDDSHRQQLFEAFPLAQTVTMPGHGHNPHWENPQGVSTLVTEFFAEVMTDASPVRVETAADKR | not soluble
8 | MTAPTAHDYDVVIIGGGPAGLTAAIYTGRAQLSTLILEKGMPGGQIAWSEEVENFPGFPEPIAGMELAQRMHQQAEKFGAKVEMDEVQGVQHDATSHPYPFTVRGYNGEYRAKAVILATGADPRKLGIPGEDNFWGKGVSTCATCDGFFYKGKKVVVIGGGDAAVEEGMFLTKFADEVTVIHRRDTLRANKVAQARAFANPKMKFIWDTAVEEIQGADSVSGVKLRNLKTGEVSELATDGVFIFIGHVPNTAFVKDTVSLRDDGYVDVRDEIYTNIPMLFAAGDVSDYIYRQLATSVGAGTRAAMMTERQLAALEVEGEEVTAAD | soluble
9 | MTAQTHNDVAVCWNQNANQWTSDVRNGYDVYRDFFTLPAFLQFLPTMADLNVIDFGCGEGSNTRHFAQMGAKVVGIDISNGLIEHARQAERVDPVGITYKIVSYSSDTGFPASSFDAVVSTMALMDGPDLQGAMHEAYRLLRPGGFVAFSVLHPCFITPGWQWQKDENGQTTGLCTSRYFDKSGFTENWKFGNRPKDENVAPFAVPRFPRTIGDYINAVASVGFRISKIEEPQPTEEACKAIPQLRRWRDLGAFLLLVIAERPKLEHHHHHH | soluble
10 | MTATHDTIRLAEIAAKAAAEKLATNIAVIDVSDVMAISEVFVLASADNERQVRSIVEEIEDMLTAEGEEPKRREGNRENRWVLLDYGMLVIHVQRNTERDFYGLDRLYQDCPLIEVEGIDTMARPEEWAQDVDVRTVESLDEIPLAGEEPADEEF | not soluble
11 | MTCDDLKSGEKRLIPKPTCRFKDAFQQYPDLLKSIIRVGILKPTPIQSQAWPIILQGIDLIVVAQTGTGKTLSYLMPGFIHLDSQPISREQRNGPGMLVLTPTRELALHVEAECSKYSYKGLKSICIYGGRNRNGQIEDISKGVDIIIATPGRLNDLQMNNSVNLRSITYLVIDEADKMLDMEFEPQIRKILLDVRPDRQTVMTSATWPDTVRQLALSYLKDPMIVYV | soluble
12 | MTDDKKMFDINEFLKRHLFVKNWVNYRQQSYTKYELMQLIESVEAALSVDDTLAKISPPVTIVGDIHGQYPDLVRVLCNQNSKEDAKKKAAYGFCNSRFVFLGDYVDRGHHSIECISLVFALKVVYPTNYILLRGNHETKSINYTYGFREELVNRLGPIDGFEIWERFNVAFSWMPLACLVGHKILCMHGGISPKLHSLKEINEIDRPVAEILPDSLAQDLLWADPADGQGAMTVRSTPEYVPNGVRGLSFIFNEAAVRDTCKRLNINLIVRAHQMIPEGFKFFADQKLLTIFSAPRYMNETDNHGATLRVETDGKLNIGRFRHKKLLHANSADEITRGDDIPNLERKKSGSMPVKHLKTSSSSSPSHSNGKSKGGEGLSLGKI | not soluble
13 | MTDFTTDIAQALVRKEDLKEVFRTHLENAVNTLLATELTAFLDYEKYDRGGFGSGNSRNGTYPRTLHTEFGDLHLSIPRDRNGEFHQQTISPYKRSNDTLESFVIHMYQKGVTTGEITDLLERMYGHHYTPQTISNMTKTMEKQVEAFKARTLAKRYVCVYLDATFIAIKRDTVSKEAVYLAIGIQEDGTKEVLAYTIAPTESALVWKEVLEDLQNRGVEDVLLFVSDGLKGIVDSIQSLFPSSSYQLCCVHLSRNLAHKVRVSDRAEVCGDFKRVYRATSKQEGQKALDDFVTKWKKVYPRATKSLEENPFILTFYDFPQAIWRSIYSTNLIESFNKQLKKYSKRKEQFPNEPSIERFLVSQFEPYNQKFSTRCHLGFDLARAELVSMFERRK | soluble
14 | MTDHSIRSRALGAYLGLACGDALGATVEFLTKGEIAHQYGVHKHIKGGGWLKLPAGQVTDDTEMSIHLGRAILAAPEWDARRAAEEFAVWLKGVPVDVGDTTRRGIRRFIMHGTLSEPESEYHAGNGAAMRNLPVALATLGDDAAFERWTVEQAHITHCNAMSDAATLTLGHMVRRLVLGGDVRDVRDESNKLIAKHRQFKFQPYRGLATAYIVDTMQTVMHYYFQTDSVESCVVETVNQGGDADTTGAIAGMLAGATYGVETIPPRWLRKLDRDVYNEICAQVDGLLARAPALKQG | soluble
15 | MTDIGAPVTVQVAVDPPYPVVIGTGLLDELEDLLADRHKVAVVHQPGLAETAEEIRKRLAGKGVDAHRIEIPDAEAGKDLPVVGFIWEVLGRIGIGRKDALVSLGGGAATDVAGFAAATWLRGVSIVHLPTTLLGMVDAAVGGKTGINTDAGKNLVGAFHQPLAVLVDLATLQTLPRDEMICGMAEVVKAGFIADPVILDLIEADPQAALDPAGDVLPELIRRAITVKAEVVAADEKESELREILNYGHTLGHAIERRERYRWRHGAAVSVGLVFAAELARLAGRLDDATAQRHRTILSSLGLPVSYDPDALPQLLEIMAGDKKTRAGVLRFVVLDGLAKPGRMVGPDPGLLVTAYAGVCAP | not soluble
16 | MTDNLLSISAACLFDDQGNLLLVRKRGTQAFMLPGGKREPGETPLAALQRELLEELRLPMGASTFEHLGSFQAPAANEANTRVDADIYVARLPHAVCAQAELEELAWLVPGQAQPDNLAPLLRDHVLPALARRAAENPETQAEHRTRPDHVR | not soluble
17 | MTDQQRRVVFMATSLLLDYPDDRWEDIIDAVSVQIDDLPKNTRQQFVQFLTAVRVMGRRGMEQHYVECFDQRRRCSLFLSYYAVGDTRQRGAAILAFQESLETLGFFLEREELPDHLCVVLEVAAKAEGLAHHVATDMLAAHRDGIEVLRVALEHSDSPYSRLVAAVCSALPDIDEETRKNFVDLIRSGPPAELIGIESPLPFPTATNV | not soluble
18 | MTDVKNDVNVSSVVDADGLIEGNYDQVVESFDDMELKEELLRGIYGFGFEKPSAIQKRAIVPCTTGKDVIAQAQSGTGKTATFSVSILQRIDHEDPHVQALVMAPTRELAQQIQKVMSALGEYLNVNILPCIGGTSVRDDQRKLEAGIHVVVGTPGRVGDMINRNALDTSRIKMFVLDEADEMLSRGFKDQIYEVFRSMPQDVQVVLLSATMPSEVLDVTNRFMRNPIRILVKKDELTLEGIRQFYINVQKDEWKFDCLCDLYNVVNVTQAVIFCNTRRKVDTLTEKMTENQFTVSCLHGDMDQAERDTIMREFRSGSSRVLITTDILARGIDVQQVSLVINYDLPSNRENYIHRIGRSGRFGRKGVAINFVTENDARQLKEIESYYTTQIEEMPESIADLI | not soluble
19 | MTDVPALEIKNLHKTFGQNEVLKGISLQAQKGDVISIIGSSGSGKSTFLRCINLLETPTAGEIWVKGELIQMKTTRQGTVQPAKEKQVQRIRSRLAMVFQSFNLWSHMTVLENVIEAPVHVLGVPKAQAIEQAERLLRKVGLYERKDYYPGHLSGGQQQRAAIARALAVEPEVMLFDEPTSALDPELVGEVLGVMRDLAEEGRTMLVVTHEMAFARDVSNHVMFLHQGKVEEQGKPEKLFKNPDSERLKQFISSIY | not soluble
20 | MTDVYIAAGLRTPIGLVGKQFAKEQPEILGAKLINALQNKYPVPIDQVICGNTVGTGGNIGRLMTLYSHLGESVSALTVDMQCASAGAALSVGYAKIKAGMASNLLVGGIESSSLQPESVYASADWRQGAYKVAQFSPDSISPFAMIEGAERVAREHGFTKEYLNHWTLRSHQKASYCQEQALLADLILDLSGASDQGIRPRLSSKVLSKVPPILGEGHVISAANACLTHDAAAFLQLSSQPSAFKLIDVVEVAGDPQRSPLMVIKASQVLLEKHGLGMADMTAIEWNEAFAVIDGLFETHYPDLLDRYNIFGGALAYGHPYGASAAIIILHLMRALEIKNGRYGIAAIAAAGGQGFAVLLKYHKEFSHADKARILGKAMPK | not soluble
21 | MTDYLADVQKYDSSADEAVVNKIVRHLGIALRNKDSALVSASDPKELERVREKWCEKKLGVGGSDADAAIAATAKAMADDRSKSRVTFYYLVAKNLGKLQTL | not soluble
